{"source": "patent US8357518B2", "about": "“Thermostable enzymes for the hydrolysis of mannan-containing polysaccharides” (The Board of Trustees of the University of Illinois, priority 2010, dated 2013)", "proteins": {"B1": {"name": "Caldanaerobius polysaccharolyticus endo-β-mannanase Man5A truncation mutant Man5A-TM1, SEQ ID NO: 28 (Caldanaerobius polysaccharolyticus) (protein)", "chain": "AGTSGDGRFHVVGNKIVDPDGKDFIIKGVNIQGYRSWEKRSVLQDVHLIADVWKFNTVRLNCFIGQNNWGEGTGANNDIDAIIKAFTAKKVVVEIDLHDTTGYPPLSNPPPAPGQPSLDQAIAWFKELAAKYKDNPYVWFNTMNEPGSSTAPLDPQWKVANEEIIKAIRSTGADNIIVVDGWSYANEGIEQNTPTVDEKRSAVLTYGQDLLNADSAKNTIFAFHNYNEGDIQKKVEDYIDRANAKGLYVFMEEYGKDYSDAAKEGVKSGLQAVMNKGAGRIYWNWDGYDLYDLTSGTGRGSGWEINKTDGSKPTNLSWVGDKIWDDNHGITPTFDDQNPKVDLALERLIANNNGFKAGDKVQFTTFLRNSGDLPIGKDSKVVVKFYVDGVQLGDPVEISGGIAVGQRIPVTSPELTVSKTDFTVKAVIDSSSTYADGAEDAVIENNWIEAAFNSTAPSSGYELVVTGIKITPDTVKEGDYVQAQVTVANQGPEATPVTNIIGWFYVNGYYYTLDDAAKSCAEQDNVTLKPGESITLSTKVKYRAAAPFNFSFVLENLYADDQNQSNNSITVNVPVKMGEGGVNMVSNPGFEDGLDSWQDWQQDMSAVPEAAHNGALGLKIGGGKAAGGGQDIPLKPNTTYILGAWAKFDSKPAGTFDVVVQYHLKDANNTYVQHILNFNETDWTYKQLLFTTPDVFGSTPQLALWKGDTSKANLYVDDVYLVEVSNLIVNGTAENGMDGWPDWGYPVSAVPEAAYGGTKGFKLSGGKQAGMGQKVALKPNTTYILGAWGKFTAKPGTYCDVIVQYHLKDANNTYVQNILRFTETDWTYKQVVFTTPDAFGSDPEFVLWKDDASNADFYADNITLVEV"}}, "assay_in_all_cases": "Catalytic efficiency with oligosaccharides, HPAEC (Man5A-TM1)", "type_in_all_cases": "biochemical, Caldanaerobius polysaccharolyticus", "conditions_in_all_cases": "other: Man5A-TM1 0.3 μM, oligosaccharide 30 μM, citrate buffer 50 mM, pH 5.5, 5 min, triplicate", "key": {"[1]": {"substrate": "OC[C@H]1O[C@@H](O[C@H]2[C@H](O)[C@H](O)[C@H](O[C@H]3[C@H](O)[C@H](O)[C@H](O[C@H]4[C@H](O)[C@H](O)[C@H](O[C@H]5[C@H](O)[C@H](O)[C@H](O[C@H]6[C@H](O)[C@H](O)C(O)O[C@@H]6CO)O[C@@H]5CO)O[C@@H]4CO)O[C@@H]3CO)O[C@@H]2CO)[C@@H](O)[C@@H](O)[C@@H]1O", "description": "(§1) Cloning, expression, and purification of Man5A-TM1, Man5A-TM2 and Man5B. C. polysaccharolyticus was cultured in TYG medium and DNA was isolated from mid-log cultures and purified using the Qiagen DNeasy Blood and Tissue kit with an integrated RNase treatment step. The genome of C. polysaccharolyticus was partially sequenced by the W. M. Keck Biotechnology Center at the University of Illinois at Urbana-Champaign. A Newbler assembly was generated which is comprised of ½ plate of FLX PE 454 data and ½ plate of 8 kb paired-end GSFLX Titanium data using a Genome Sequencer instrument from 454 Life Sciences (Branford, Conn.). The partial genome sequence was uploaded onto the Rapid Annotation using Subsystem Technology (RAST) server (Aziz et al., BMC Genomics, 9:75, 2008). Auto-annotation of the C. polysaccharolyticus partial genome sequence identified ORF0760 as a gene predicted to encode a bifunctional β-D-mannanase/endoglucanase (Man5B). Man5A was previously identified in a recombinant phage library of C. polysaccharolyticus genomic DNA, which was screened for endoglucanase activity (Cann et al., J Bacteriol, 181:1643, 1999) and the full sequence of this gene was also identified in the partial genome sequence for C. polysaccharolyticus.\n(§2) The DNA sequence corresponding to man5B was amplified by the PicoMaxx high fidelity PCR kit using genomic DNA as the template with the primer set Man5B-Forward and Man5B-Reverse (Table 1-1). The primers were engineered to incorporate a 5′-[…] (SEQ ID NO: 54) extension in Man5B-F and a 5′-[…] (SEQ ID NO: 55) extension in Man5B-R, which facilitated subsequent directional cloning. The resultant man5B amplicon was then digested with T4 DNA polymerase exonuclease activity, annealed with a similarly digested pET-46b vector and introduced into E. coli JM109 by electroporation. Man5A-TM1 was amplified using genomic DNA as template with primers Man5A-TM1-F and Man5A-TM1-R (Table 1-1). The primer sets for Man5A-TM1 and Man5A-TM2 were designed to include 5′-NdeI and 3′-XhoI restriction sites for subsequent directional cloning. The resulting amplicons were then cloned into the pGEM-T vector via TA-cloning and subcloned in-frame with the hexahistidine (His6) encoding sequence of a modified pET-28a expression vector via its NdeI-XhoI polylinker site. The truncated protein Man5A-TM2 originally named ManA-SLH-CBD was cloned as described in a previous study (Cann et al., J Bacteriol, 181:1643, 1999). Expression of each of the resulting gene constructs yielded fusion proteins containing an N-terminal polyhistidine tag sequence to facilitate affinity purification via metal chelate chromatography. The resulting plasmid constructs pET46-Man5B, pET28a-Man5A-TM1, and pET-28a-Man5A-TM2 were sequenced to confirm the integrity of the cloned genes (W. M. Keck Center for Comparative and Functional Genomics at the University of Illinois at Urbana-Champaign).\n(§3) The plasmid constructs were then introduced into E. coli BL-21 CodonPlus (DE3) RIL competent cells by heat shock, and grown overnight in lysogeny broth (LB) agar medium supplemented with ampicillin (100 μg/mL) and chloramphenicol (50 μg/mL) at 37° C. After 12 h, single colonies were selected and used to inoculate fresh LB (10 mL) supplemented with the antibiotics above at the same concentrations, followed by culturing with aeration for 8 h at 37° C. The pre-cultures were then inoculated into fresh LB (1 L) supplemented with ampicillin and chloramphenicol and the cultures were incubated at 37° C. with vigorous aeration (225 rpm/min). The cultures were grown to an optical density of 0.3 at 600 nm, and the temperature was shifted to 16° C. and gene expression was induced by the addition of 0.1 mM isopropyl β-D-thiogalactopyranoside (IPTG). […]"}, "[2]": {"substrate": "OC[C@H]1O[C@@H](O[C@H]2[C@H](O)[C@H](O)[C@H](O[C@H]3[C@H](O)[C@H](O)[C@H](O[C@H]4[C@H](O)[C@H](O)C(O)O[C@@H]4CO)O[C@@H]3CO)O[C@@H]2CO)[C@@H](O)[C@@H](O)[C@@H]1O", "description": "as §1, §2, §3"}, "[3]": {"substrate": "OC[C@H]1O[C@@H](O[C@H]2[C@H](O)[C@H](O)[C@H](O[C@H]3[C@H](O)[C@H](O)[C@H](O[C@H]4[C@H](O)[C@H](O)[C@H](O[C@H]5[C@H](O)[C@H](O)C(O)O[C@@H]5CO)O[C@@H]4CO)O[C@@H]3CO)O[C@@H]2CO)[C@@H](O)[C@@H](O)[C@@H]1O", "description": "as §1, §2, §3"}, "[4]": {"substrate": "OC[C@H]1O[C@@H](O[C@H]2[C@H](O)[C@@H](O)[C@H](O[C@H]3[C@H](O)[C@@H](O)[C@H](O[C@H]4[C@H](O)[C@@H](O)[C@H](O[C@H]5[C@H](O)[C@@H](O)[C@H](O[C@H]6[C@H](O)[C@@H](O)C(O)O[C@@H]6CO)O[C@@H]5CO)O[C@@H]4CO)O[C@@H]3CO)O[C@@H]2CO)[C@H](O)[C@@H](O)[C@@H]1O", "description": "as §1, §2, §3"}, "[5]": {"substrate": "OC[C@H]1O[C@@H](O[C@H]2[C@H](O)[C@@H](O)[C@H](O[C@H]3[C@H](O)[C@@H](O)[C@H](O[C@H]4[C@H](O)[C@@H](O)C(O)O[C@@H]4CO)O[C@@H]3CO)O[C@@H]2CO)[C@H](O)[C@@H](O)[C@@H]1O", "description": "as §1, §2, §3"}, "[6]": {"substrate": "OC[C@H]1O[C@@H](O[C@H]2[C@H](O)[C@@H](O)[C@H](O[C@H]3[C@H](O)[C@@H](O)[C@H](O[C@H]4[C@H](O)[C@@H](O)[C@H](O[C@H]5[C@H](O)[C@@H](O)C(O)O[C@@H]5CO)O[C@@H]4CO)O[C@@H]3CO)O[C@@H]2CO)[C@H](O)[C@@H](O)[C@@H]1O", "description": "as §1, §2, §3"}}}
{"protein": "B1", "values": [{"measurement": "kcat/Km", "setting": "[1]", "value": "(1.2 ± 0.2) × 10^2 mM^−1 s^−1"}, {"measurement": "kcat/Km", "setting": "[2]", "value": "17000 ± 4000", "unit": "M⁻¹ s⁻¹"}, {"measurement": "kcat/Km", "setting": "[3]", "value": "33000 ± 3000", "unit": "M⁻¹ s⁻¹"}, {"measurement": "kcat/Km", "setting": "[4]", "value": "20000 ± 2000", "unit": "M⁻¹ s⁻¹"}, {"measurement": "kcat/Km", "setting": "[5]", "value": "11000 ± 2000", "unit": "M⁻¹ s⁻¹"}, {"measurement": "kcat/Km", "setting": "[6]", "value": "9300 ± 2000", "unit": "M⁻¹ s⁻¹"}]}
